First the molecules themselves.
B1: H2-Kb / Ed39 (parent complex)
chain 1: GEQVEQRPPHLSVREGDSAVIICTYTDPNSYYFFWYKQEPGAGLQLLMKVFSSTEINEGQGFTVLLNKKDKQLSLNLTAAHPGDSAVYFCATMSNYNVLYFGSGTKLTVEP
chain 2: GALVYQYPRRTICKSGTSMRMECQAVGFQATSVAWYRQSPQKTFELIALSTVNSAIKYEQNFTQEKFPISHPNLSFSSMTVLNAYLEDRGLYLCGARDGSYEQYFGPGTRLTVL
chain 3: not shown
chain 4: IQKTPQIQVYSRHPPENGKPNILNCYVTQFHPPHIEIQMLKNGKKIPKVEMSDMSFSKDWSFYILAHTEFTPTETDTYACRVKHDSMAEPKTVYWDRDM
chain 5: SIINFEKL
B2: H2-Kb / Ed33 (parent complex)
chain 1: SQLAEENSWALSVHEGESVTVNCSYKTSITALQWYRQKSGKGPAQLILIRSNEREKRNGRLRATLDTSSQSSSLSITATRCEDTAVYFCATDHNNAGAKLTFGGGTRLTVRP
chain 2: DAGVTQTPRHEVAEKGQTIILKCEPVSGHNDLFWYRQTKIQGLELLSYFRSKSLMEDGGAFKDRFKAEMLNSSFSTLKIQPTEPKDSAVYLCASSLYTNQAPLFGEGTRLSVL
chain 3: not shown
chain 4: B1 chain 4
chain 5: SIINFEKL
Further: test concentration or dose not given here.

Variants of B1 are the subject of the first test. Briefly: % of reporter cells activated (NFAT-GFP), raw.
As for chain 5 E6K, the ratio to parent is 0.308. Turning to chain 5 S1R, the ratio to parent was found to be 0.0616. Same read-out and setting: the same measure for chain 5 S1Y: 0.351; for chain 5 I2L: 1.03.

As to chain 5 I2P, the ratio to parent came to 0.58. Same read-out and setting: the same measure for chain 5 I2C: 0.926; for chain 5 F5C: 0.689; for chain 5 F5G: 0.454. As to chain 5 I3Q, the ratio to parent was determined as 0.3. Take chain 5 I3W: the ratio to parent was found to be 0.472. Same read-out and setting: the same measure for chain 5 N4I: 0.00838; for chain 5 N4Q: 0.00338; for chain 5 L8H: 0.788. Still for that read-out and setting: the same measure for chain 5 L8C: 0.483; for chain 5 K7N: 0.0309; for chain 5 K7E: 0.00639.

Take chain 5 K7G: the ratio to parent came to 0.0989. Regarding chain 5 K7T, the ratio to parent amounted to 0.359.

In the next test the parent is B2. Nature of the test: % of reporter cells activated (NFAT-GFP), raw.
With chain 5 I3H, the ratio to parent came out at 0.895. Same read-out and setting: the same measure for chain 5 I3M: 1.07; for chain 5 I3W: 0.836. Regarding chain 5 I3K, the ratio to parent came out at 0.656. chain 5 I3N: the ratio to parent was 0.932.

chain 5 I3V: the ratio to parent was 0.933.

In the case of chain 5 I3L, the ratio to parent was 0.984. On the same count and under the same terms, the same measure for chain 5 I3R: 0.581. For the variant chain 5 I3Q, the ratio to parent is 1.08.

As for chain 5 I3T, the ratio to parent stood at 1.04.

In the case of chain 5 I3S, the ratio to parent was determined as 1.01.

For chain 5 I3F, the ratio to parent was 0.0275. As to chain 5 I3P, the ratio to parent came to 1.09.

On to chain 5 I3Y, for which the ratio to parent came to 0.0463.

With chain 5 I3E, the ratio to parent was found to be 1.06.

For chain 5 I3G, the ratio to parent came out at 1.03. As for chain 5 I3D, the ratio to parent turned out to be 0.634.

As for chain 5 S1A, the ratio to parent stood at 0.461. The same measure, in the same setting: the same measure for chain 5 S1P: 0.115; for chain 5 S1C: 0.295; for chain 5 S1W: 0.182.

chain 5 S1R: the ratio to parent is 0.392. For chain 5 S1F, the ratio to parent came out at 0.3. Same read-out and setting: the same measure for chain 5 S1Q: 0.91; for chain 5 S1V: 0.349.

In the case of chain 5 S1H, the ratio to parent stood at 0.634. Consider chain 5 S1D, for which the ratio to parent is 1.05. Still for that read-out and setting: the same measure for chain 5 S1Y: 0.414; for chain 5 S1E: 1.02; for chain 5 S1M: 0.675. On to chain 5 S1G, for which the ratio to parent came out at 0.48. Same read-out and setting: the same measure for chain 5 S1K: 0.121. On the same count and under the same terms, the same measure for chain 5 S1N: 0.173; for chain 5 S1L: 0.0492. Turning to chain 5 S1I, the ratio to parent was 0.0715. Same read-out and setting: the same measure for chain 5 N4L: 0.428; for chain 5 N4D: 0.135; for chain 5 N4A: 0.00624. The same measure, in the same setting: the same measure for chain 5 N4E: 0.246; for chain 5 N4H: 0.134. Still for that read-out and setting: the same measure for chain 5 N4K: 0.41; for chain 5 N4C: 0.0904; for chain 5 N4F: 0.0234. As for chain 5 N4G, the ratio to parent was 0.294. Consider chain 5 N4S, for which the ratio to parent was 0.00273. Regarding chain 5 N4P, the ratio to parent is 0.000438. Same read-out and setting: the same measure for chain 5 N4R: 0.168; for chain 5 N4T: 0.0148; for chain 5 N4W: 0.0116. As for chain 5 N4Q, the ratio to parent is 0.00449. The same measure, in the same setting: the same measure for chain 5 L8I: 0.988; for chain 5 L8K: 0.941. chain 5 L8N: the ratio to parent was found to be 0.905. On the same count and under the same terms, the same measure for chain 5 L8P: 0.846. Still for that read-out and setting: the same measure for chain 5 L8D: 0.731; for chain 5 L8A: 0.913. Turning to chain 5 L8H, the ratio to parent was 0.968. Same read-out and setting: the same measure for chain 5 L8Y: 1.01; for chain 5 L8E: 0.8. The same measure, in the same setting: the same measure for chain 5 L8C: 0.824; for chain 5 L8Q: 0.9. Still for that read-out and setting: the same measure for chain 5 L8R: 0.873; for chain 5 L8M: 0.936; for chain 5 L8S: 0.84. On to chain 5 L8W, for which the ratio to parent is 0.881. Same read-out and setting: the same measure for chain 5 L8F: 0.941; for chain 5 F5H: 0.911; for chain 5 F5R: 0.982. On to chain 5 F5P, for which the ratio to parent is 0.988.

As for chain 5 F5W, the ratio to parent was determined as 0.968. Still for that read-out and setting: the same measure for chain 5 F5E: 0.625; for chain 5 F5S: 0.958; for chain 5 F5T: 1.08. chain 5 F5V: the ratio to parent was 0.917. For chain 5 F5A, the ratio to parent came to 1.1. On to chain 5 F5K, for which the ratio to parent turned out to be 0.862. On the same count and under the same terms, the same measure for chain 5 F5D: 0.85; for chain 5 F5G: 0.844; for chain 5 F5I: 0.655. chain 5 F5Q: the ratio to parent was determined as 1.01.

chain 5 F5N: the ratio to parent came to 0.876. On the same count and under the same terms, the same measure for chain 5 F5C: 1.05. Same read-out and setting: the same measure for chain 5 K7V: 0.427; for chain 5 K7I: 0.018; for chain 5 K7W: 0.74.

On to chain 5 K7Q, for which the ratio to parent came to 0.0157.

In the case of chain 5 K7R, the ratio to parent turned out to be 0.318. On the same count and under the same terms, the same measure for chain 5 K7E: 0.0117; for chain 5 K7C: 0.063; for chain 5 K7F: 0.0757.

chain 5 K7A: the ratio to parent is 0.227. The same measure, in the same setting: the same measure for chain 5 K7T: 0.0585; for chain 5 K7P: 0.372. Take chain 5 K7G: the ratio to parent stood at 0.204.

For chain 5 K7S, the ratio to parent is 0.754. Consider chain 5 K7M, for which the ratio to parent is 0.0938. With chain 5 K7H, the ratio to parent was found to be 0.0435. On the same count and under the same terms, the same measure for chain 5 K7N: 0.216; for chain 5 K7Y: 0.157; for chain 5 I2H: 0.835. As for chain 5 I2P, the ratio to parent turned out to be 1.03. For chain 5 I2Y, the ratio to parent was found to be 0.715.

Regarding chain 5 I2T, the ratio to parent came out at 0.981.

With chain 5 I2L, the ratio to parent is 1.05.

As for chain 5 I2C, the ratio to parent was 0.918.

For the variant chain 5 I2F, the ratio to parent was 0.774. On the same count and under the same terms, the same measure for chain 5 I2N: 1.01; for chain 5 I2G: 0.456. Same read-out and setting: the same measure for chain 5 I2V: 1.04.

For the variant chain 5 I2D, the ratio to parent is 0.897. chain 5 I2A: the ratio to parent was 0.885. For the variant chain 5 I2K, the ratio to parent worked out at 1.01. As for chain 5 I2Q, the ratio to parent was found to be 0.918.

Take chain 5 I2R: the ratio to parent turned out to be 0.807.

As for chain 5 I2E, the ratio to parent was found to be 1.03. On to chain 5 E6V, for which the ratio to parent was determined as 0.0218.

As to chain 5 E6T, the ratio to parent was 0.0145.

chain 5 E6R: the ratio to parent was found to be 0.00434. Same read-out and setting: the same measure for chain 5 E6F: 0.101. Still for that read-out and setting: the same measure for chain 5 E6N: 0.00413; for chain 5 E6Q: 0.218; for chain 5 E6C: 0.0452.

With chain 5 E6A, the ratio to parent was 0.055. Same read-out and setting: the same measure for chain 5 E6M: 0.0967; for chain 5 E6I: 0.00689. Still for that read-out and setting: the same measure for chain 5 E6Y: 0.182; for chain 5 E6D: 0.113. On the same count and under the same terms, the same measure for chain 5 E6K: 0.425; for chain 5 E6H: 0.223.

Take chain 5 E6P: the ratio to parent was 0.0303. Same read-out and setting: the same measure for chain 5 E6G: 0.513; for chain 5 E6W: 0.0137.

For the origin of these results see PMC11480844 (2024).
